{"source": "patent US20050074865", "key": {"[1]": {"biological_target": "recombinant human TNFα (RDI), P01375", "sequence (P01375 77-233)": "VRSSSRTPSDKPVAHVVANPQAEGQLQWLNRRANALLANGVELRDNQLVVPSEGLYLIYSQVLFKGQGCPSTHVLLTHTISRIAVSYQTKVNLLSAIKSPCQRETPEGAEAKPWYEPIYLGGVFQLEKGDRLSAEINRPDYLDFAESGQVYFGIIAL"}, "[2]": {"biological_target": "recombinant human TNFα (RDI) (UniProt P01375)", "sequence (P01375 77-233)": "as above"}}}
{"protein": "mesotrypsin, activated with enterokinase (C-terminal myc and His6 tags, expressed from pDEST40) (protein) IVGGYTCEENSLPYQVSLNSGSHFCGGSLISEQWVVSAAHCYKTRIQVRLGEHNIKVLEGNEQFINAAKIIRHPKYNRDTLDNDIMLIKLSSPAVINARVSTISLPTAPPAAGTECLISGWGNTLSFGADYPDELKCLDAPVLTQAECKASYPGKITNSMFCVGFLEGGKDSCQRDSGGPVVCNGQLQGVVSWGHGCAWKNRPGVYTKVYNYVDWIKDTIAANSEQKLISEEDLNSAVDHHHHHH", "values": [{"measurement": "cleavage of TNF, Western blot with anti-TNF antibody after overnight incubation", "setting": "[1]", "value": "but not by enzyme (mesotrypsin) to an appreciatable degree"}, {"measurement": "inactivation of TNF bioactivity, L929 bioassay after overnight digestion, 100 nM mesotrypsin and 100 nM TNF", "setting": "[1]", "value": "at equimolar ratios, mesotrypsin achieved only marginal inactivation of TNF in solution"}, {"measurement": "inactivation of TNF bioactivity, L929 bioassay after overnight digestion, mesotrypsin at 86, 43 and 22 nM with 100 nM TNF", "setting": "[1]", "value": "at these concentrations, the enzyme mesotrypsin, is either inactive or marginally active towards TNF"}]}
{"protein": "ADAMTS4 (enzyme, UniProt O75173 213-837, looked up, species assumed) A disintegrin and metalloproteinase with thrombospondin motifs 4: FASLSRFVETLVVADDKMAAFHGAGLKRYLLTVMAAAAKAFKHPSIRNPVSLVVTRLVILGSGEEGPQVGPSAAQTLRSFCAWQRGLNTPEDSDPDHFDTAILFTRQDLCGVSTCDTLGMADVGTVCDPARSCAIVEDDGLQSAFTAAHELGHVFNMLHDNSKPCISLNGPLSTSRHVMAPVMAHVDPEEPWSPCSARFITDFLDNGYGHCLLDKPEAPLHLPVTFPGKDYDADRQCQLTFGPDSRHCPQLPPPCAALWCSGHLNGHAMCQTKHSPWADGTPCGPAQACMGGRCLHMDQLQDFNIPQAGGWGPWGPWGDCSRTCGGGVQFSSRDCTRPVPRNGGKYCEGRRTRFRSCNTEDCPTGSALTFREEQCAAYNHRTDLFKSFPGPMDWVPRYTGVAPQDQCKLTCQAQALGYYYVLEPRVVDGTPCSPDSSSVCVQGRCIHAGCDRIIGSKKKFDKCMVCGGDGSGCSKQSGSFRKFRYGYNNVVTIPAGATHILVRQQGNPGHRSIYLALKLPDGSYALNGEYTLMPSPTDVVLPGAVSLRYSGATAASETLSGHGPLAQPLTLQVLVAGNPQDTRLRYSFFVPRPTPSTPRPTPQDWLHRRAQILEILRRRPWAGRK", "values": [{"measurement": "inactivation of TNFα bioactivity, L929 cytotoxicity bioassay after overnight digestion", "setting": "[2]", "value": "ADAMTS4 (column: Proteases that did not inactivate TNF)"}]}
{"protein": "Cathepsin G (enzyme, UniProt P08311 21-244, looked up, species assumed) Cathepsin G: IIGGRESRPHSRPYMAYLQIQSPAGQSRCGGFLVREDFVLTAAHCWGSNINVTLGAHNIQRRENTQQHITARRAIRHPQYNQRTIQNDIMLLQLSRRVRRNRNVNPVALPRAQEGLRPGTLCTVAGWGRVSMRRGTDTLREVQLRVQRDRQCLRIFGSYDPRRQICVGDRRERKAAFKGDSGGPLLCNNVAHGIVSYGKSSGVPPEVFTRVSSFLPWIRTTMRS", "values": [{"measurement": "inactivation of TNFα bioactivity, L929 cytotoxicity bioassay after overnight digestion", "setting": "[2]", "value": "Cathepsin G (column: Proteases that did not inactivate TNF)"}]}
